# Molecular target: trimeric gp140 clade A HIV-1 92/UG/037 (HIV-1 clade A strain 92/UG/037)
# Experiment: SPR
substance,measurement,value
GNA (natural protein),Kd,7.2 nM
